Data: patent publication US20080274112A1, “Nogo Receptor Antagonists” (priority 2003, published 2008)

Assays:
MAG + sNogoR344-Fc = target: T1, MAG + sNogoR344-Fc (Rattus norvegicus, UniProt Q99M75, A303T/C287S/C43R/E284G/T53A); assay: mAb/Fab inhibition of MAG binding to sNogoR344-Fc (ELISA)
T1 construct: amino acid residues 26-344 of rat Nogo receptor-1; made in house
T1 sequence (Q99M75 26-344 C43R/T53A/E284G/C287S/A303T): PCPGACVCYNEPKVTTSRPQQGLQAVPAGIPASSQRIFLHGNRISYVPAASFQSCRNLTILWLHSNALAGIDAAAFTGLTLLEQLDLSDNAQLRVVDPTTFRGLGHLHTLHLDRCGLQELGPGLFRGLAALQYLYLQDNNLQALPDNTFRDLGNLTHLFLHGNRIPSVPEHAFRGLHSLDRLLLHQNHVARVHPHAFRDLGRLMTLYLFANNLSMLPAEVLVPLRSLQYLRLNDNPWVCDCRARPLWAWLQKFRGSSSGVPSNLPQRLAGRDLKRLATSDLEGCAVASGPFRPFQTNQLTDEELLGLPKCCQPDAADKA
Protocol: 0.5 μg of a soluble Nogo receptor-1 fusion protein comprising amino acid residues 26-344 of rat Nogo receptor-1 and the hinge and Fc region of the rat IgG1 molecule (sNogoR344-Fc) produced as described below was immobilized on 250 μg of protein-A- or wheatgerm agglutinin-conjugated SPA beads (Amersham Pharmacia Biotech) for 2 hours at 25° C. SPA beads coupled with Fc-sNogoR-1, anti-Nogo receptor-1 mAb and 1 μl ^125I-Nogo66 (Amersham, 2000 Ci/mmol, 1 nM) in 50 μl of the HEPES-buffered incubation medium (10 mM HEPES, pH 7.4, 0.1% bovine serum albumin, 0.1% ovalbumin, 2 mM MgCl2, 2 mM CaCl2 and protease inhibitors) was added to each sample well. After 16 hours, radioactivity was measured in quadruplicate samples using a TopCount® (Packard). IC50 values were calculated from a curve-fit analysis (FIG. 3) (PRISM, GraphPad Software, NJ). In some experiments, we also used AP-ligand conjugates (e.g. AP-Nogo66) and detected binding by monitoring alkaline phosphatase activity. We also assayed the ability of the mAbs to block binding of the ligands MAG-Fc and AP-OM-gp to Nogo receptor-1.
The calculated IC50 for Nogo66 for 7E11 and 1H2 were 400 nM and 60 nM, respectively. The data from ELISAs monitoring mAb-mediated inhibition of binding of the three ligands to Nogo receptor-1 are summarized in Table 6.
We also performed ELISA binding assays using the Fab-phage 14D5.

[1] = target: T2, rat NgR1 (sNgR310) fragments (Rattus norvegicus, UniProt Q99M75, A303T/C287S/C43R/E284G/T53A); assay: Western blot of acid/CNBr fragments of sNgR310 probed with 7E11; type: binding
T2 construct: made in house
T2 sequence (Q99M75 27-310 C43R/T53A/E284G/C287S/A303T): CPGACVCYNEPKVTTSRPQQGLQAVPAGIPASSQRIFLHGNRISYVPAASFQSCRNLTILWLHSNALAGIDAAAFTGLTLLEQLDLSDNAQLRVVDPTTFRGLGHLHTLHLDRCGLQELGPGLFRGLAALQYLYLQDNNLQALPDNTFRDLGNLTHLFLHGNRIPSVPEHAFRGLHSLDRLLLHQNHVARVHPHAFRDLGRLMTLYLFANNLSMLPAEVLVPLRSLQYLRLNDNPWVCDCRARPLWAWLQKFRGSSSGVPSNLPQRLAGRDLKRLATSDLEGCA
Protocol: (§1) A recombinant fragment of the rat NgR1 that contains all 8 LRR domains and the N- and C-terminal caps (sNgR310) was treated with either acid or cyanogen bromide (CNBr) and separated the fragments by gel electrophoresis. Untreated sNgR310 migrates with an apparent molecular weight of 42 kDa. Acid treatment of sNgR310 produced two major cleavage products of 15 kDa (aa 27-aa 122) and 30 kDa (aa 123-aa 310). CNBr treatment generated three fragments, a 33/35 kDa doublet (aa 27-aa 229), which may represent fragments with heterogeneous glycosylation, a 10 kDa product (aa 241-aa 310), and an 11-amino-acid fragment (aa 230-aa 240), which is not retained on the gel. […] Both the 15 kDa acid fragment and the 35 kDa CNBr fragment contained the sequence LDLSDNAQLRVVDPTT (SEQ ID NO: 1), consistent with 7E11 binding to a single epitope on NgR1.

[2] = target: T3, rat NgR1 (sNgR310) fragments (Rattus norvegicus, UniProt Q99M75, A303T/C287S/E284G); assay: as above; type: binding
T3 construct: made in house
T3 sequence (Q99M75 241-310 E284G/C287S/A303T): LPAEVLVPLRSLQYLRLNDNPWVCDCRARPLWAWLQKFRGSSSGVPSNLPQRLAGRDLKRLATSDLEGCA
Protocol: as §1

[3] = target: T4, rat NgR1 (sNgR310) fragments (Rattus norvegicus, UniProt Q99M75, C43R/T53A); assay: as above; type: binding
T4 construct: made in house
T4 sequence (Q99M75 27-122 C43R/T53A): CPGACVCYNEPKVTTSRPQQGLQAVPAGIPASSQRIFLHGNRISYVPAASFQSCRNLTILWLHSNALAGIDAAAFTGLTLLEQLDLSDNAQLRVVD
Protocol: as §1

mouse NgR1 = target: T5, mouse NgR1 (Mus musculus, UniProt Q99PI8); assay: Antibody binding to mouse Nogo receptor-1
T5 sequence (Q99PI8 27-447): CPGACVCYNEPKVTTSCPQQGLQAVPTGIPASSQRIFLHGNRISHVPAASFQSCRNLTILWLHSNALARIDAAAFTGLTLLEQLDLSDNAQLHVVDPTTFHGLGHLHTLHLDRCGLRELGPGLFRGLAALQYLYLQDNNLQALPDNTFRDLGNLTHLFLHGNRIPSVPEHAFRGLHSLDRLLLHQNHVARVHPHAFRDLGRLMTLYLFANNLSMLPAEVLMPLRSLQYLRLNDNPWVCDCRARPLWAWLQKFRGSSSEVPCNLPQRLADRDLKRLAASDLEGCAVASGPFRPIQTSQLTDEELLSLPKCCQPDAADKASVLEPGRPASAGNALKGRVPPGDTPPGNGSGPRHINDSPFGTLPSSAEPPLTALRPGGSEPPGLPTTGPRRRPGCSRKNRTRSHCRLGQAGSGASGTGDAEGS

[4] = target: polypeptide p-617 (SEQ ID NO: 1) (Rattus norvegicus, UniProt Q99M75); assay: Specificity ELISA on polypeptide p-617; type: binding
Description: To determine the specificity of the monoclonal and Fab-phage antibodies produced in Examples 1 and 2, we performed an ELISA using a panel of Nogo receptor-1 polypeptides. The panel consisted of sNogoR310-Fc (a fusion protein comprising amino acids 26-310 of rat Nogo receptor-1 and a rat Fc fragment), sNogoR344-Fc (see supra), polypeptide p-617 (SEQ ID NO: 1), polypeptide p-618 (a 19-amino acid polypeptide from the LRR7 region of rat Nogo receptor-1; FIG. 2; SEQ ID NO: 11) and polypeptides p-4 and p-5 (polypeptides from the LRR5 and LRRCT regions of Nogo receptor-1, respectively). Ovalbumin and BSA were used as controls.

B1: 7E11: murine monoclonal anti-Nogo receptor-1 antibody, IgG1 kappa, ATCC PTA-4587; immunogen rat Nogo receptor-1 residues 110-125 (antibody, V domains shown)
VH: VQLQESGAELVMPGASVKMSCKASGYTFTDYWMHWVKQRPGQGLEWIGAIDPSDSYSSYNQNFKGKATLTVDGSSSTAYMQLSSLTSEDSAVYYCARRITEAGAWFAYWGQGTTVT
VL: DVVMTQTPLSLPVSLGDQASISCRSSQSLVHSNGNTYLHWYLQKPGQSPKLLIYKVSNRFSGVPDRFSGSGSGTDFTLKISRVDAEDLGVYFCSQSTHVPFTFGGGTKLEIKRADAAPTVSISHH
- inhibition of binding of MAG to sNogoR344-Fc (MAG + sNogoR344-Fc): inhibited binding
- percent displacement, MAG + sNogoR344-Fc (MAG + sNogoR344-Fc; 30 nM antibody): 30 nM (60%)
- EC50 (MAG + sNogoR344-Fc; curve-fit analysis): 0.5 µM
- 7E11 binding to intact rat NgR1 (aa 27-aa 310) [1]: bound
- 7E11 binding to 10 kDa CNBr fragment (aa 241-aa 310) [2]: did not bind
- 7E11 binding to 15 kDa acid fragment (aa 27-aa 122) [3]: bound
- binding to mouse NgR1 (mouse NgR1): poorly
- binding to polypeptide p-617 [4]: specifically bound
